Test results published in PMC4944999 (PLoS ONE, 2016).

Biological target: PeB^GF-Lys, double substituted variant ([change], [change]) of PeB-Lys (mouse)
Assay: SPR

hemagglutinin (HA) of influenza A/NewYork/55/2004 H3N2, in monovalent split vaccine (natural protein)
fold amount of hemagglutinin bound compared to PeB: 4 fold
